Assay results: US20110300138A1 (published 2011)

Assays:
[1] = molecular target: human TSH receptor (wild type), expressed on transfected CHO cells (human) (UniProt P16473); assay: cell-based or functional assay
[2] = molecular target: human TSHR (wild type, full length) expressed in CHO cells (human) (UniProt P16473); assay: cell-based or functional assay
[3] = molecular target: human TSHR expressed in CHO cells (human) (UniProt P16473); assay: cell-based or functional assay
[4] = molecular target: TSHR260-alkaline phosphatase (TSHR260-AP) (human) (UniProt P05187); assay: TSHR260-AP bridge ELISA, full length TSHR on wells; 1 µg/mL, diluted in HBD
[5] = molecular target: TSHR260-alkaline phosphatase (TSHR260-AP) (human) (UniProt P05187); assay: TSHR260-AP bridge ELISA, full length TSHR on wells; 100 µg/mL, diluted in HBD
[6] = molecular target: TSHR260-alkaline phosphatase (TSHR260-AP) (human) (UniProt P05187); assay: TSHR260-AP bridge ELISA, full length TSHR on wells; 10 µg/mL, diluted in assay buffer
[7] = molecular target: TSHR260-alkaline phosphatase (TSHR260-AP) (human) (UniProt P05187); assay: TSHR260-AP bridge ELISA, full length TSHR on wells; 0.5 µg/mL, diluted in assay buffer
[8] = molecular target: TSHR260-alkaline phosphatase (TSHR260-AP) (human) (UniProt P05187); assay: TSHR260-AP bridge ELISA, full length TSHR on wells; 250 µg/mL, diluted in assay buffer
TSHR260-AP (human) [9] = assay: TSHR260-AP bridge ELISA (full length TSHR on wells, TSHR260-AP in solution); IgG 100 µg/mL diluted in HBD serum
TSHR260-AP (human) [10] = assay: TSHR260-AP bridge ELISA (full length TSHR on wells, TSHR260-AP in solution); IgG 0.05 µg/mL diluted in HBD serum
TSHR260-AP (human) [11] = assay: TSHR260-AP bridge ELISA (full length TSHR on wells, TSHR260-AP in solution); IgG 1 µg/mL diluted in assay buffer
TSHR260-AP (human) [12] = assay: TSHR260-AP bridge ELISA (full length TSHR on wells, TSHR260-AP in solution); IgG 0.005 µg/mL diluted in HBD serum
TSHR260-AP (human) [13] = assay: TSHR260-AP bridge ELISA (full length TSHR on wells, TSHR260-AP in solution); IgG 10 µg/mL diluted in assay buffer
TSHR260-AP (human) [14] = assay: TSHR260-AP bridge ELISA (full length TSHR on wells, TSHR260-AP in solution); IgG 0.5 µg/mL diluted in assay buffer
TSHR260-AP (human) [15] = assay: TSHR260-AP bridge ELISA (full length TSHR on wells, TSHR260-AP in solution); IgG 0.05 µg/mL diluted in assay buffer
TSHR260-AP (human) [16] = assay: TSHR260-AP bridge ELISA (full length TSHR on wells, TSHR260-AP in solution); IgG 0.005 µg/mL diluted in assay buffer

B1: 5C9 IgG (antibody, from another filing, V domains shown)
VH: EVQLVESGGGLIQPGGSLRLSCAASGFTVSSNYMSWVRQAPGKGLEWVSVTYSGGSTSYADSVKGRFTISRDNSKNTLYLQMNSLRAEDTAVYYCARGGRYCSSISCYARSGCDYWGQGTLVTVSS
VL: AIQMTQSPSSLSASVGDRVTITCRASQSISNYLNWYQQKPGKAPKLLIYAASSLQSGVPSRFSGSGSGTDFTLTISSLQPEDFATYYCQQSYSSPSTTFGQGTKLEIK
Q: How did the % Inhibition; pTSH 3 ng/mL + 0.1 µg/mL 5C9 [1] turn out when B1 was run?
A: 78.7%

Q: What about the % Inhibition; pTSH 3 ng/mL + 1 µg/mL 5C9 [1] of the same binder?
A: 93.5%

Q: And the % Inhibition; pTSH 3 ng/mL + 10 µg/mL 5C9 [1]?
A: 98%

Q: And the % Inhibition; pTSH 3 ng/mL + 100 µg/mL 5C9 [1]?
A: 99.2%

Q: And the Cyclic AMP concentration; 100 µg/mL 5C9 alone [1]?
A: 0.2 pmol/mL

Q: What about the Cyclic AMP concentration; 5C9 IgG 0.01 µg/mL + T11 [1] of the same binder?
A: 24.1 pmol/mL

Q: What about the Cyclic AMP concentration; 5C9 IgG 0.1 µg/mL + T11 [1] of the same binder?
A: 20.2 pmol/mL

Q: What about the Cyclic AMP concentration; 5C9 IgG 1 µg/mL + T11 [1] of the same binder?
A: 19.4 pmol/mL

Q: What about the Cyclic AMP concentration; 5C9 IgG 10 µg/mL + T11 [1] of the same binder?
A: 21.7 pmol/mL

Q: What about the Cyclic AMP concentration; 5C9 IgG 100 µg/mL + T11 [1] of the same binder?
A: 22.4 pmol/mL

Q: And the Cyclic AMP concentration; 5C9 IgG 100 µg/mL alone [1]?
A: 0.9 pmol/mL

Q: And the Cyclic AMP concentration; pTSH 3 ng/mL + 0.001 µg/mL 5C9 [1]?
A: 64.1 pmol/mL

Q: And the Cyclic AMP concentration; pTSH 3 ng/mL + 0.01 µg/mL 5C9 [1]?
A: 64.6 pmol/mL

Q: What about the Cyclic AMP concentration; pTSH 3 ng/mL + 0.1 µg/mL 5C9 [1] of the same binder?
A: 13.7 pmol/mL

Q: What about the Cyclic AMP concentration; pTSH 3 ng/mL + 1 µg/mL 5C9 [1] of the same binder?
A: 4.2 pmol/mL

Q: What about the Cyclic AMP concentration; pTSH 3 ng/mL + 10 µg/mL 5C9 [1] of the same binder?
A: 1.3 pmol/mL

Q: And the Cyclic AMP concentration; pTSH 3 ng/mL + 100 µg/mL 5C9 [1]?
A: 0.5 pmol/mL

Q: And the Cyclic AMP production (constitutive activity); 0.1 µg/mL 5C9 IgG [1]?
A: 68.2 pmol/mL

Q: What about the Cyclic AMP production (constitutive activity); 0.2 µg/mL 5C9 IgG [1] of the same binder?
A: 58.8 pmol/mL

Q: And the Cyclic AMP production (constitutive activity); 1 µg/mL 5C9 IgG [1]?
A: 31.4 pmol/mL

Q: And the Cyclic AMP production (constitutive activity); 2 µg/mL 5C9 IgG [1]?
A: 31.8 pmol/mL

Q: What about the % Inhibition of T5 serum stimulation; 0.01 µg/mL 5C9 IgG [2] of the same binder?
A: 17.2%

Q: And the % Inhibition of T5 serum stimulation; 0.1 µg/mL 5C9 IgG [2]?
A: 91.2%

Q: What about the % Inhibition of T5 serum stimulation; 1 µg/mL 5C9 IgG [2] of the same binder?
A: 97.8%

Q: And the % Inhibition of T5 serum stimulation; 10 µg/mL 5C9 IgG [2]?
A: 98.9%

Q: And the % Inhibition of T5 serum stimulation; 100 µg/mL 5C9 IgG [2]?
A: 98.9%

Q: And the Cyclic AMP concentration; 0.01 µg/mL 5C9 IgG + T5 [2]?
A: 52.9 pmol/mL

Q: And the Cyclic AMP concentration; 0.1 µg/mL 5C9 IgG + T5 [2]?
A: 5.6 pmol/mL

Q: And the Cyclic AMP concentration; 1 µg/mL 5C9 IgG + T5 [2]?
A: 1.4 pmol/mL

Q: And the Cyclic AMP concentration; 10 µg/mL 5C9 IgG + T5 [2]?
A: 0.7 pmol/mL

Q: What about the Cyclic AMP concentration; 100 µg/mL 5C9 IgG + T5 [2] of the same binder?
A: 0.7 pmol/mL

Q: And the Cyclic AMP concentration; 100 µg/mL 5C9 IgG alone [2]?
A: 1.1 pmol/mL

Q: And the % Inhibition; 5C9 IgG 0.003 µg/mL + 3 ng/mL pTSH [3]?
A: 10.4%

Q: What about the % Inhibition; 5C9 IgG 0.0075 µg/mL + 3 ng/mL pTSH [3] of the same binder?
A: 76.5%

Q: And the % Inhibition; 5C9 IgG 0.01 µg/mL + 3 ng/mL pTSH [3]?
A: 1%

Q: And the % Inhibition; 5C9 IgG 0.025 µg/mL + 3 ng/mL pTSH [3]?
A: 26%

Q: What about the % Inhibition; 5C9 IgG 0.05 µg/mL + 3 ng/mL pTSH [3] of the same binder?
A: 62.8%

Q: And the % Inhibition; 5C9 IgG 0.1 µg/mL + 3 ng/mL pTSH [3]?
A: 81.8%

Q: And the % Inhibition; 5C9 IgG 0.3 µg/mL + 3 ng/mL pTSH [3]?
A: 87.5%

Q: And the % Inhibition; 5C9 IgG 1 µg/mL + 3 ng/mL pTSH [3]?
A: 92.3%

Q: And the % Inhibition; 5C9 IgG 3 µg/mL + 3 ng/mL pTSH [3]?
A: 92.8%

Q: What about the Mean absorbance at 405 nm (absorbance at 405 nm) [4] of the same binder?
A: 0.045

Q: And the Mean absorbance at 405 nm (absorbance at 405 nm) [5]?
A: 0.027

Q: And the Mean absorbance at 405 nm (absorbance at 405 nm) [6]?
A: 0.099

Q: What about the Mean absorbance at 405 nm (absorbance at 405 nm) [7] of the same binder?
A: -0.005

Q: What about the Mean absorbance at 405 nm (absorbance at 405 nm) [8] of the same binder?
A: 1.12

Q: And the Mean absorbance at 405 nm (absorbance at 405 nm) (TSHR260-AP (human) [9])?
A: 0.027

Q: What about the Mean absorbance at 405 nm (absorbance at 405 nm) (TSHR260-AP (human) [10]) of the same binder?
A: -0.003

Q: What about the Mean absorbance at 405 nm (absorbance at 405 nm) (TSHR260-AP (human) [11]) of the same binder?
A: 0.011

Q: What about the Mean absorbance at 405 nm (absorbance at 405 nm) (TSHR260-AP (human) [12]) of the same binder?
A: 0.02

Q: And the Mean absorbance at 405 nm (absorbance at 405 nm) (TSHR260-AP (human) [13])?
A: 0.099

Q: What about the Mean absorbance at 405 nm (absorbance at 405 nm) (TSHR260-AP (human) [14]) of the same binder?
A: -0.005

Q: And the Mean absorbance at 405 nm (absorbance at 405 nm) (TSHR260-AP (human) [15])?
A: -0.008

Q: And the Mean absorbance at 405 nm (absorbance at 405 nm) (TSHR260-AP (human) [16])?
A: -0.009
